{"source": "paper doi:10.1101/2024.12.13.628329", "about": "(bioRxiv, 2024)", "proteins": {"B1": {"name": "TNFR1^R347A death domain (domain or fragment, UniProt P19438 356-441, looked up)", "chain": "PATLYAVVENVPPLRWKEFVARLGLSDHEIDRLELQNGRCLREAQYSMLATWRRRTPRREATLELLGRVLRDMDLLGCLEDIEEAL"}}, "target": "the molecule itself", "assay": "SEC", "data": [{"protein": "B1", "values": [{"measurement": "stoichiometry N", "result": 2}]}]}
